# Test results as given in PMC3017772, “The CaaX specificities of Arabidopsis protein prenyltransferases explain era1 and ggb phenotypes” (BMC Plant Biology, 2010).
# Key:
# [1] = molecular target: recombinant Arabidopsis protein farnesyltransferase (PFT) (Arabidopsis (ecotype Col-0)) (UniProt Q9LX33)
# [2] = molecular target: recombinant Arabidopsis protein geranylgeranyltransferase type 1 (PGGT1) (Arabidopsis (ecotype Col-0)) (UniProt Q9LX33)
# Sequence of recombinant Arabidopsis protein geranylgeranyltransferase type 1 (PGGT1) (Arabidopsis (ecotype Col-0)) (Q9LX33 whole entry, chain 1 of 2): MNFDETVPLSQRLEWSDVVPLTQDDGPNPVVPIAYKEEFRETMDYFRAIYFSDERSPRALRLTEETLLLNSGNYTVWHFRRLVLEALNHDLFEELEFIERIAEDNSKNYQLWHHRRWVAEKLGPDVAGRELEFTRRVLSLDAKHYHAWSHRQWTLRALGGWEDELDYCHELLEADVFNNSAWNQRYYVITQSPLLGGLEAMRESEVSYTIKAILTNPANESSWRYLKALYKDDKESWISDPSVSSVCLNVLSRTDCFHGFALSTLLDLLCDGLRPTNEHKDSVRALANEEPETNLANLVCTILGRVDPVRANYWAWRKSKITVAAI
# Sequence of recombinant Arabidopsis protein geranylgeranyltransferase type 1 (PGGT1) (Arabidopsis (ecotype Col-0)) (O80642 whole entry, chain 2 of 2, further chain): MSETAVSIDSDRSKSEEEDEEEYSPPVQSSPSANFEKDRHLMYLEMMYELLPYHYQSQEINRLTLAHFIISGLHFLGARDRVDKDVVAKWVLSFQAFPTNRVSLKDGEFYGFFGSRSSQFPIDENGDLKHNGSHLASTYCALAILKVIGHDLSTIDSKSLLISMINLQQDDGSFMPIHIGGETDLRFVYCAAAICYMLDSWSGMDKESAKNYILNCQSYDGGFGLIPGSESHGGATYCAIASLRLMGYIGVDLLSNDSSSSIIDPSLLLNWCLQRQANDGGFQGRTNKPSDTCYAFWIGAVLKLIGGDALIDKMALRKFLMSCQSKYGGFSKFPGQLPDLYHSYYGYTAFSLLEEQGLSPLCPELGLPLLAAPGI
# Sequence of recombinant Arabidopsis protein farnesyltransferase (PFT) (Arabidopsis (ecotype Col-0)) (Q9LX33 whole entry, chain 1 of 2): as the sequence (Q9LX33 whole entry, chain 1 of 2) above
# Sequence of recombinant Arabidopsis protein farnesyltransferase (PFT) (Arabidopsis (ecotype Col-0)) (Q38920 whole entry, chain 2 of 2, further chain): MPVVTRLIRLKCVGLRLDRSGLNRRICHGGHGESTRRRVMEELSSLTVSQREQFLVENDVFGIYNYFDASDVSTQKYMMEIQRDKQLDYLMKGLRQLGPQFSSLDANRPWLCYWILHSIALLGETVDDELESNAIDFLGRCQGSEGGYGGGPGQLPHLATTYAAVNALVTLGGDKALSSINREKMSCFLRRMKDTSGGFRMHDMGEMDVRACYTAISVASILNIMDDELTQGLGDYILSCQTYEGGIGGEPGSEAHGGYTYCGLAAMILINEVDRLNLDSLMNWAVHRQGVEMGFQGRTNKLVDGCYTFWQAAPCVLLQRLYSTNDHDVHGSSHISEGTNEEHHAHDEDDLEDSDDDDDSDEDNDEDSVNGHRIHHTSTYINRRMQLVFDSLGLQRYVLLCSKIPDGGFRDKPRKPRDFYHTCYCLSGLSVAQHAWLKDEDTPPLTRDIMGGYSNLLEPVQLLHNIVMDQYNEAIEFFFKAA
"Km for the CaaX protein substrate; in vitro prenylation by purified PFT with [1-3H]farnesyl diphosphate, Lineweaver-Burk analysis [1] [µM]","Km for the CaaX protein substrate; in vitro prenylation by purified PGGT1 with [1-3H]geranylgeranyl diphosphate, Lineweaver-Burk analysis [2] [µM]",Substance
6.9,19,GFP-BD-CVII
5.4,5.8,GFP-BD-CVIM
5.5,3.5,GFP-BD-CVIQ
7,17.2,GFP-BD-CVIL
